Key:
[1] = biological target: T1, WT BLMcore (Homo sapiens, UniProt P54132 636-1298); experiment: EMSA; 5 mM MgCl2; distinct shift; estimated apparent KD; 50 mM Tris-HCl pH 7.5, 50 mM KCl, 5 mM MgCl2, 1 mM DTT, 0.1 mg/mL BSA, 40 nM DNA, 30 min room temperature; 5% gel in TBE + 100 mM KCl at 4 C; conditions: protein: recombinant; (HisTrap purified); label: 3'-FAM on oAV320 (strand 2); 18 bp duplex, 3' overhang 39 nt on strand 1
[2] = biological target: T1, WT BLMcore; experiment: EMSA; 5 mM MgCl2; smear; estimated apparent KD; 50 mM Tris-HCl pH 7.5, 50 mM KCl, 5 mM MgCl2, 1 mM DTT, 0.1 mg/mL BSA, 40 nM DNA, 30 min room temperature; 5% gel in TBE + 100 mM KCl at 4 C; conditions: protein: recombinant, (HisTrap purified)

T1 sequence (P54132 636-1298): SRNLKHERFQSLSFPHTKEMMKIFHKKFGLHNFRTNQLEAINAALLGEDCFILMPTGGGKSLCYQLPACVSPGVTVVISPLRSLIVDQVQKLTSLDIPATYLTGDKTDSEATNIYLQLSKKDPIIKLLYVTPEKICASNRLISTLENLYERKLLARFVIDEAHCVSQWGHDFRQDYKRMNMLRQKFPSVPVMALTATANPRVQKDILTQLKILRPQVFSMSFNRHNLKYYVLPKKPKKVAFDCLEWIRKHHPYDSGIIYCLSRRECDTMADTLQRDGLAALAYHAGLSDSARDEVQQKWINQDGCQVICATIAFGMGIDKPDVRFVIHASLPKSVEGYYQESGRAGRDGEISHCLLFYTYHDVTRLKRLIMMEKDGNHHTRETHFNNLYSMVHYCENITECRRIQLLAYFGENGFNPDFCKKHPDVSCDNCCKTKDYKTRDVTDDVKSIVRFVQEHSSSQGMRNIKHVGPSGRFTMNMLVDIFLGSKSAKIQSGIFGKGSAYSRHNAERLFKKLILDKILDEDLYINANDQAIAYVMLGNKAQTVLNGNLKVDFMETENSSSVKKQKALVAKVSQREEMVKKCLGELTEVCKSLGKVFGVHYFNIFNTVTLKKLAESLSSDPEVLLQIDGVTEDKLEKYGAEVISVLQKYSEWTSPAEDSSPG

B1: partial dsDNA with 3' ssDNA overhang (oRC32/FAM-oAV320) (dsDNA)
DNA 1: TGGCGACGGCAGCGAGGCTTAGGGTTAGCGTTAGCGTTAGGGTTTTTTTTTTTTTTT
DNA 2: GCCTCGCTGCCGTCGCCA
Work on B1 yielded a Kd [1] of about 79 nM.

Binder GGGTTAGGGTTAGGGTTAGGGTTTTTTTTTT (structured_DNA) [G4 DNA with 3' ssDNA overhang (FAM-oRC96)] has a Kd ([2]; label: 3'-FAM, intramolecular G4 (folded in 100 mM KCl) with 3' T-rich ssDNA tail) of about 125 nM.

In the case of TTTTTTTTTTTTTTTTTTTTTTTTTTTTTT (ssDNA) [FAM-dT30 (ssDNA)], the Kd ([2]; single strand) is reported as about 125 nM.

— article PMC10237670, “Biochemical properties of naturally occurring human bloom helicase variants”
